The source of these data is patent US8551717B2, “Method for determining sumoylation” (Medizinische Hochschule Hannover, priority 2008, dated 2013).

The test system of assay [1] is STAT1. Description: Interplay of STAT1 Y701 phosphorylation and K703 SUMOylation by USDDS, western blot. As to conditions: HEK293, USDDS with AP21967 1 μM and interferon-β, any stimulation scenario. In kind it is cell-based, human. Background: In western blotting, separated proteins are transferred to a membrane and probed.
Assay [2] has as its target T1, p53-U (Homo sapiens, UniProt P04637+P63279).
T1 construct: expressed in transfected cells; host or cells: HEK293
Description: Trans-SUMOylation by p53-U. In kind it is cell-based. The following applies: western blot.

In assay [3] the target is T2, JUN-U (Homo sapiens, UniProt P05412+P63279).
T2 construct: expressed in transfected cells; host or cells: HEK293
T2 sequence (P05412+P63279 fused): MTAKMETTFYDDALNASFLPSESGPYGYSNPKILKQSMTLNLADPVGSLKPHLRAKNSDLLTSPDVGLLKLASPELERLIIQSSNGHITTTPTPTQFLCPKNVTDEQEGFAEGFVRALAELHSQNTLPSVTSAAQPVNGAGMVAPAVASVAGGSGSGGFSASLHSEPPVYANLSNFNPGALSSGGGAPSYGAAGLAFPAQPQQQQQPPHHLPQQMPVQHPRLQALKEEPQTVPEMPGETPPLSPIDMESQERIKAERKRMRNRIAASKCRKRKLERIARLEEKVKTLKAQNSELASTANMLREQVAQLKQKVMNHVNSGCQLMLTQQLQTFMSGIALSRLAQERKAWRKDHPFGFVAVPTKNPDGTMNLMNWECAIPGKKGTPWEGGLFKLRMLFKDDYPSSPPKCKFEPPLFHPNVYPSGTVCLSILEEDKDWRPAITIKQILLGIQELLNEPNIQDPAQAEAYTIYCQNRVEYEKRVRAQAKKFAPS
Description: Trans-SUMOylation by JUN-U. As to conditions: protein 2 construct coexpressed with JUN-U and EGFP-SUMO1 in HEK293, western blot. In kind it is cell-based.

In assay [4] the target is T3, MK2-U (Homo sapiens, UniProt P49137+P63279).
T3 construct: expressed in transfected cells; host or cells: HEK293
T3 sequence (P49137+P63279 fused): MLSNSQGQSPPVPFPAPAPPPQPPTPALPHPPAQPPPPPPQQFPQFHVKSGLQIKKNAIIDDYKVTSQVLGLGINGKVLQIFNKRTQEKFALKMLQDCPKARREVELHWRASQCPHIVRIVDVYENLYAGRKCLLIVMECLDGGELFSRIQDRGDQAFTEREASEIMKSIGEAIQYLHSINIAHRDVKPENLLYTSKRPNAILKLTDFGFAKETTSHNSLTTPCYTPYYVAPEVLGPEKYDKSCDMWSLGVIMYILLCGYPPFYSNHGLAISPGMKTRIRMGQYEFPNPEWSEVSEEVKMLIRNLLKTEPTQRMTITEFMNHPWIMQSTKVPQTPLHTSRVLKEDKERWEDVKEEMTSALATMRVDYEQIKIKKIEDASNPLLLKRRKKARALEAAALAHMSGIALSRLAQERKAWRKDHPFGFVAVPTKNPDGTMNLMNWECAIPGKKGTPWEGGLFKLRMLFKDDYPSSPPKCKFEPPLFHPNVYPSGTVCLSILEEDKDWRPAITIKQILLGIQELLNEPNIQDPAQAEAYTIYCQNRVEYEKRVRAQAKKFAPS
Description: Trans-SUMOylation by MK2-U. The following applies: protein 2 construct coexpressed with MK2-U and EGFP-SUMO1 in HEK293; western blot; Table 2. It counts as cell-based.

In assay [5] the target is T4, U-MK2 (Homo sapiens, UniProt P49137+P63279).
T4 construct: expressed in transfected cells; host or cells: HEK293
T4 sequence (P63279+P49137 fused): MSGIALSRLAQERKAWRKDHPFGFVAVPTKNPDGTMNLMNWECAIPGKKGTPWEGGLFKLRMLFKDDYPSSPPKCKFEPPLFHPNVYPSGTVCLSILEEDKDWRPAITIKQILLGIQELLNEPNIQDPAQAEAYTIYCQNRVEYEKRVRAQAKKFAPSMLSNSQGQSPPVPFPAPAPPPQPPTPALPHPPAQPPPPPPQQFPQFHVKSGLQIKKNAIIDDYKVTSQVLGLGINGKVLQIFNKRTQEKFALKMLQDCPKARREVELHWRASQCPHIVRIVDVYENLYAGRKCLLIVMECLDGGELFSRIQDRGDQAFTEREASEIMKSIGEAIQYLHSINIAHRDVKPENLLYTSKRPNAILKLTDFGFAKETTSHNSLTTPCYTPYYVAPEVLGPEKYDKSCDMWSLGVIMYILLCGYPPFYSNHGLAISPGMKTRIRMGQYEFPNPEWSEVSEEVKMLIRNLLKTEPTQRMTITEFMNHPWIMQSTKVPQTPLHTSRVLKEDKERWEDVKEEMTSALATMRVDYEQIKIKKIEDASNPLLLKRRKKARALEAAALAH
The experiment in a line: Trans-SUMOylation by U-MK2. It counts as cell-based. As to conditions: protein 2 construct coexpressed with U-MK2 and EGFP-SUMO1 in HEK293; western blot; Table 2.

Assay [6] has as its target T5, U-p38α (Homo sapiens, UniProt P63279+Q16539).
T5 construct: expressed in transfected cells; host or cells: HEK293
The experiment in a line: Trans-SUMOylation by U-p38α. It counts as cell-based. The following applies: protein 2 construct coexpressed with U-p38α and EGFP-SUMO1 in HEK293; western blot; Table 2.

Assay [7] addresses T6, U-MK5 (Homo sapiens, UniProt P63279+Q8IW41).
T6 construct: expressed in transfected cells; host or cells: HEK293
Description: Trans-SUMOylation by U-MK5. In kind it is cell-based. More on the design: key: (++), strong TransSUMOylation; (+), TransSUMOylation; (+/−) weak TransSUMOylation; (−) no detectable TransSUMOylation. As to conditions: protein 2 construct coexpressed with U-MK5 and EGFP-SUMO1 in HEK293; western blot; Table 2. The source says:
(§1) To identify new SUMOylation substrates and to study the function of SUMOylation the Ubc9/substrate dimerisation-dependent SUMOylation system (USDDS) was developed which consists of fusions of the SUMOylation substrate and of the SUMO-conjugating enzyme Ubc9 to the chemically activatable heterodimerisation domains FKBP and FRB, respectively, as shown in FIG. 2. When the substrate protein fused to FKBP is coexpressed with Ubc9-FRB, treatment of HEK293 cells with the rapamycin-related dimerizer AP21967 induces SUMOylation of the substrate protein fused to FKBP at its specific SUMOylation site. […] Dependent on an EcoRl site in the coding sequence, seven C-terminal amino acids of the human STAT1a in the STAT1-FKBP/FRB fusion proteins are missing. For the SUMOylation analysis HEK293 (human embryonic kidney cells) cells have been used. HEK293 cells were cultured in Dulbecco's modified Eagle's medium with high glucose, complemented with 10% fetal calf serum, 2 mM L-glutamine, 100 U/ml penicillin and […] streptomycin. […]
(§2) As shown above, the SUMOylation of a protein of interest can be induced by the heterodimerisation with a binding protein fused to Ubc9. […] Therefore the protein pairs were coexpressed with EGFP-SUMO1 in HEK293 cells and after 24h the transfectants were lysed and the protein extracts were analyzed in western blots. […]

The target in assay [8] is T7, Ubc9-FKBP (Homo sapiens, UniProt P42345+P63279).
T7 construct: expressed in transfected cells; host or cells: HEK293
T7 sequence (P63279 with tags, fused parts or gaps): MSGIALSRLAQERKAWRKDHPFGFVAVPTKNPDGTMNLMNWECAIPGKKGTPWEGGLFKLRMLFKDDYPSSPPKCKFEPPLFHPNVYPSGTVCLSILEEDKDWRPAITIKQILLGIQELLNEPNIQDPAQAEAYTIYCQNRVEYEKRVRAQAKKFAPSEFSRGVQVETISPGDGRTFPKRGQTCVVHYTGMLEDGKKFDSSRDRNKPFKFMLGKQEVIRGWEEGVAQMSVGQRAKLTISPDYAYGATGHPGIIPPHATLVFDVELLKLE
T7 sequence (P42345 2021-2113 limits assumed): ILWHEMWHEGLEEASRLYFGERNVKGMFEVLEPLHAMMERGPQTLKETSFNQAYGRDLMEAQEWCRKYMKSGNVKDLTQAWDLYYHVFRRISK
The experiment in a line: USDDS specificity for SUMOylation sites (K-to-R mutants), western blot. In kind it is cell-based. The following applies: HEK293, coexpressed with Ubc9-FKBP and EGFP-SUMO1, stimulated with AP21967 1 μM.

Assay [9] has as its target T8, U-CDC37 (Homo sapiens, UniProt P63279+Q16543).
T8 construct: expressed in transfected cells; host or cells: HEK293
The experiment in a line: Trans-SUMOylation by U-CDC37. In kind it is cell-based. On the set-up: key: (++), strong TransSUMOylation; (+), TransSUMOylation; (+/−) weak TransSUMOylation; (−) no detectable TransSUMOylation. As to conditions: protein 2 construct coexpressed with U-CDC37 and EGFP-SUMO1 in HEK293; western blot; Table 1.
Text: as §1, §2

Setting [10] is: protein 2 construct coexpressed with p53-U and EGFP-SUMO1 in HEK293, Table 2.

T6 sequence (P63279+Q8IW41 fused): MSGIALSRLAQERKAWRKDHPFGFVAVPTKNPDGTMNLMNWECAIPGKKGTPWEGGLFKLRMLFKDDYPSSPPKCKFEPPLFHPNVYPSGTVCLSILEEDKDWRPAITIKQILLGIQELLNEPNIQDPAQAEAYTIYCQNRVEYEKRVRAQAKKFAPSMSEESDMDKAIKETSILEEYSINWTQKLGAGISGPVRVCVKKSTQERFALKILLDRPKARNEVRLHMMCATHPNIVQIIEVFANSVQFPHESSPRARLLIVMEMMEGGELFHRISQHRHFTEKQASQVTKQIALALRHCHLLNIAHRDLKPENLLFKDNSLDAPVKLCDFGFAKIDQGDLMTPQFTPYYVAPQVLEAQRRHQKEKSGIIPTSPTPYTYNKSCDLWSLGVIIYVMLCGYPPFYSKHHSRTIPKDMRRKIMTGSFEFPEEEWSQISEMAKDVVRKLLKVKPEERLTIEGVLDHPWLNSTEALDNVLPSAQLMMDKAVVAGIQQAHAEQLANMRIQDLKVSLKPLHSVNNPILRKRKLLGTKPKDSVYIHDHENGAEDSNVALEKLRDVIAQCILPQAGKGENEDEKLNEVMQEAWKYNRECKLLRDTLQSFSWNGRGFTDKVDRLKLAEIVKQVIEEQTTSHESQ
T5 sequence (P63279+Q16539 fused): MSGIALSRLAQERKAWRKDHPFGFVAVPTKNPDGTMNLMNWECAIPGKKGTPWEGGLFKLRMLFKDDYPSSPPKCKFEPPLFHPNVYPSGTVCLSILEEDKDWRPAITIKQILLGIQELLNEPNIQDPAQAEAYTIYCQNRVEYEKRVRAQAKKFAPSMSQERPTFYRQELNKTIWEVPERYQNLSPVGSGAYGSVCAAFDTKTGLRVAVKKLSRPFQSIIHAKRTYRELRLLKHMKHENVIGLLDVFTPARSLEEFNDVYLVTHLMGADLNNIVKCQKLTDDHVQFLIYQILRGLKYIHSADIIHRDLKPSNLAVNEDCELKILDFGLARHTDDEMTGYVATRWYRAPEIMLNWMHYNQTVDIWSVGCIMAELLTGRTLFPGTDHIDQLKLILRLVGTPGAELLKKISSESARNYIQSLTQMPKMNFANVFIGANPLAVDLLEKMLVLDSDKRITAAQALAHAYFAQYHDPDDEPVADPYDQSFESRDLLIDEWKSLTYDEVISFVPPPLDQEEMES
T8 sequence (P63279+Q16543 fused): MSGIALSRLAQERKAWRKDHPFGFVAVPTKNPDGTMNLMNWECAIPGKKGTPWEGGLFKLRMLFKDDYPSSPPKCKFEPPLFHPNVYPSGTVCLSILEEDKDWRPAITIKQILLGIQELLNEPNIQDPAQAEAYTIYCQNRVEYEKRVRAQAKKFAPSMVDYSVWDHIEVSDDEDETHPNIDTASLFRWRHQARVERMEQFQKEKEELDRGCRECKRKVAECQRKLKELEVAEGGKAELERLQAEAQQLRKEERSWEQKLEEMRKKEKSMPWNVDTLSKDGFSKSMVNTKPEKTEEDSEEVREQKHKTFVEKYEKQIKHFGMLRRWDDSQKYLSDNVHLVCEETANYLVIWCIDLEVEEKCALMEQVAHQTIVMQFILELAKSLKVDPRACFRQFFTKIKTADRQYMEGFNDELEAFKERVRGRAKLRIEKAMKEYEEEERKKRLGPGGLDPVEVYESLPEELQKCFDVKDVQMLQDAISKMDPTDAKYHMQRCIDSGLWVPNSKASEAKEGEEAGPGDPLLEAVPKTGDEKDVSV

B1: STAT1-FRB: human STAT1a fused to FRB (T2098L) heterodimerisation domain (protein)
chain: MSQWYELQQLDSKFLEQVHQLYDDSFPMEIRQYLAQWLEKQDWEHAANDVSFATIRFHDLLSQLDDQYSRFSLENNFLLQHNIRKSKRNLQDNFQEDPIQMSMIIYSCLKEERKILENAQRFNQAQSGNIQSTVMLDKQKELDSKVRNVKDKVMCIEHEIKSLEDLQDEYDFKCKTLQNREHETNGVAKSDQKQEQLLLKKMYLMLDNKRKEVVHKIIELLNVTELTQNALINDELVEWKRRQQSACIGGPPNACLDQLQNWFTIVAESLQQVRQQLKKLEELEQKYTYEHDPITKNKQVLWDRTFSLFQQLIQSSFVVERQPCMPTHPQRPLVLKTGVQFTVKLRLLVKLQELNYNLKVKVLFDKDVNERNTVKGFRKFNILGTHTKVMNMEESTNGSLAAEFRHLQLKEQKNAGTRTNEGPLIVTEELHSLSFETQLCQPGLVIDLETTSLPVVVISNVSQLPSGWASILWYNMLVAEPRNLSFFLTPPCARWAQLSEVLSWQFSSVTKRGLNVDQLNMLGEKLLGPNASPDGLIPWTRFCKENINDKNFPFWLWIESILELIKKHLLPLWNDGCIMGFISKERERALLKDQQPGTFLLRFSESSREGAITFTWVERSQNGGEPDFHAVEPYTKKELSAVTFPDIIRNYKVMAAENIPENPLKYLYPNIDKDHAFGKYYSRPKEAPEPMELDGPKGTGYIKTELISVSEVHPSRLQTTDNLLPMSPEEFDEVSRIVGSVEFILWHEMWHEGLEEASRLYFGERNVKGMFEVLEPLHAMMERGPQTLKETSFNQAYGRDLMEAQEWCRKYMKSGNVKDLLQAWDLYYHVFRRISK
With B1, the “double modification of STAT1 by SUMOylation and Y701 phosphorylation” value in assay [1] was “no double modification”.

B2: HA-JNK1: JNK1 fused to HA tag (protein)
chain: MSRSKRDNNFYSVEIGDSTFTVLKRYQNLKPIGSGAQGIVCAAYDAILERNVAIKKLSRPFQNQTHAKRAYRELVLMKCVNHKNIIGLLNVFTPQKSLEEFQDVYIVMELMDANLCQVIQMELDHERMSYLLYQMLCGIKHLHSAGIIHRDLKPSNIVVKSDCTLKILDFGLARTAGTSFMMTPYVVTRYYRAPEVILGMGYKENVDLWSVGCIMGEMVCHKILFPGRDYIDQWNKVIEQLGTPCPEFMKKLQPTVRTYVENRPKYAGYSFEKLFPDVLFPADSEHNKLKASQARDLLSKMLVIDASKRISVDEALQHPYINVWYDPSEAEAPPPKIPDKQLDEREHTIEEWKELIYKEVMDLEERTKNGVIRGQPSPLAQVQQ
modifications: left off: small tags and cut ends
notes: JNK1 fused to HA tag
For B2, the Trans-SUMOylation entry in assay [2] (protein 2 construct coexpressed with P53-U (p53-U) and EGFP-SUMO1 in HEK293, Table 1) is on record as “−”; in [3] (Table 1), “−”.

B3: GST-DRG1: DRG1 fused to GST tag (protein)
chain: MSSTLAKIAEIEAEMARTQKNKATAHHLGLLKARLAKLRRELITPKGGGGGGPGEGFDVAKTGDARIGFVGFPSVGKSTLLSNLAGVYSEVAAYEFTTLTTVPGVIRYKGAKIQLLDLPGIIEGAKDGKGRGRQVIAVARTCNLILIVLDVLKPLGHKKIIENELEGFGIRLNSKPPNIGFKKKDKGGINLTATCPQSELDAETVKSILAEYKIHNADVTLRSDATADDLIDVVEGNRVYIPCIYVLNKIDQISIEELDIIYKVPHCVPISAHHRWNFDDLLEKIWDYLKLVRIYTKPKGQLPDYTSPVVLPYSRTTVEDFCMKIHKNLIKEFKYALVWGLSVKHNPQKVGKDHTLEDEDVIQIVKK
modifications: left off: a dimerising Fc or GST
notes: DRG1 fused to GST tag
On to B3, for which the Trans-SUMOylation result in assay [4], in assay [5], in assay [2] (setting [10]), in [6], in assay [7] and in [3] (Table 2) was “−” throughout.

B4: STAT1K703R-FRB: STAT1 SUMOylation site mutant K703R fused to FRB (protein, UniProt P42224 2-750, looked up, variant K703R)
Signal transducer and …: SQWYELQQLDSKFLEQVHQLYDDSFPMEIRQYLAQWLEKQDWEHAANDVSFATIRFHDLLSQLDDQYSRFSLENNFLLQHNIRKSKRNLQDNFQEDPIQMSMIIYSCLKEERKILENAQRFNQAQSGNIQSTVMLDKQKELDSKVRNVKDKVMCIEHEIKSLEDLQDEYDFKCKTLQNREHETNGVAKSDQKQEQLLLKKMYLMLDNKRKEVVHKIIELLNVTELTQNALINDELVEWKRRQQSACIGGPPNACLDQLQNWFTIVAESLQQVRQQLKKLEELEQKYTYEHDPITKNKQVLWDRTFSLFQQLIQSSFVVERQPCMPTHPQRPLVLKTGVQFTVKLRLLVKLQELNYNLKVKVLFDKDVNERNTVKGFRKFNILGTHTKVMNMEESTNGSLAAEFRHLQLKEQKNAGTRTNEGPLIVTEELHSLSFETQLCQPGLVIDLETTSLPVVVISNVSQLPSGWASILWYNMLVAEPRNLSFFLTPPCARWAQLSEVLSWQFSSVTKRGLNVDQLNMLGEKLLGPNASPDGLIPWTRFCKENINDKNFPFWLWIESILELIKKHLLPLWNDGCIMGFISKERERALLKDQQPGTFLLRFSESSREGAITFTWVERSQNGGEPDFHAVEPYTKKELSAVTFPDIIRNYKVMAAENIPENPLKYLYPNIDKDHAFGKYYSRPKEAPEPMELDGPKGTGYIRTELISVSEVHPSRLQTTDNLLPMSPEEFDEVSRIVGSVEFDSMMNTV
modifications: fused to FRB domain
Regarding B4, the “SUMOylation of mutant fusion protein” value in [8] was “nearly no SUMOylation”.

B5: GST-CDK4: CDK4 fused to GST tag (protein, UniProt P11802 2-303, looked up)
Cyclin-dependent kinase 4: ATSRYEPVAEIGVGAYGTVYKARDPHSGHFVALKSVRVPNGGGGGGGLPISTVREVALLRRLEAFEHPNVVRLMDVCATSRTDREIKVTLVFEHVDQDLRTYLDKAPPPGLPAETIKDLMRQFLRGLDFLHANCIVHRDLKPENILVTSGGTVKLADFGLARIYSYQMALTPVVVTLWYRAPEVLLQSTYATPVDMWSVGCIFAEMFRRKPLFCGNSEADQLGKIFDLIGLPPEDDWPRDVSLPRGAFPPRGPRPVQSVVPEMEESGAQLLLEMLTFNPHKRISAFRALQHSYLHKDEGNPE
modifications: GST tag
As to B5, the Trans-SUMOylation result was “−” in assay [2] (setting [10]) and “+” in assay [9].
